These results are taken from publication PMC9564178 (Cells, 2022).

The target in experiment [1] is T1, human recombinant TPPP1 (hexaHis fusion) (human, UniProt O94811 1-219).
T1 construct: human TPPP1 (Tubulin Polymerization Promoting Protein, TPPP/p25), UniProtKB O94811, 219 amino acids; probably the whole 219-residue protein; also called TPPP/p25; source: E. coli BL21 (DE3), isolated on a HIS-Select Cartridge
Briefly: ELISA; TPPP3 immobilised; recombinant TPPP1 added at different concentrations with extract of non-transfected HeLa cells (0.32 mg/mL); detected by monoclonal TPPP1 antibody; apparent Kd. To be noted: both partners purified. (In general: An ELISA detects its analyte on a solid surface through an enzyme-linked reagent.)

The target in experiment [2] is T1, human recombinant TPPP1 (hexaHis fusion). Briefly: ELISA; TPPP3 immobilised (5 μg/mL, PBS); recombinant TPPP1 added at different concentrations, without HeLa extract; detected by monoclonal TPPP1 antibody; apparent Kd, single-site hyperbola. To be noted: both partners purified.

T1 sequence (O94811 whole entry, the tested form may be a part): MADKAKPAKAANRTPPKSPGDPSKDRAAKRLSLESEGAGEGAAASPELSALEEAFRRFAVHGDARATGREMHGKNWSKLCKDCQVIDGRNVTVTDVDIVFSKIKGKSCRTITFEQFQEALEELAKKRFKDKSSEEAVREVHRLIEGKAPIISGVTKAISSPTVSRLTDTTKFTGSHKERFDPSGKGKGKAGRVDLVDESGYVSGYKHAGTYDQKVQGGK

B1: human recombinant TPPP3 (hexaHis fusion) (natural protein)
chain: AGLEESFRKFAIHGDPKASGQEMNGKNWAKLCKDCKVADGKSVTGTDVDIVFSKVKGKSARVINYEEFKKALEELATKRFKGKSKEEAFDAICQLVAGKEPANVGVTKAKTGGAVDRLTDTSRYTGSHKERFDESGKGKGIAGRQDILDDSGYVSAYKNAGTYDAKVKK
notes: human TPPP3 (Tubulin Polymerization Promoting Protein 3), UniProtKB Q9BW30, 176 amino acids; probably the whole 176-residue protein; also called TPPP/p20; source: E. coli BL21 (DE3), isolated on a HIS-Select Cartridge
On to B1, for which the results for the Kd in experiment [1] and in experiment [2] were 0.0477 µM and 0.00653 µM, respectively.
